Experiments:
[1] = tested on: cell-surface antigens on SK-MEL 28 melanoma cells; assay: Fluorescence activated cell sorting competition binding assay against FITC-modified whole L49; design: species or system human; conditions: FACS competition assay
Procedure: FIG. 7 depicts a competition binding assay. 3677 cells were incubated with various combinations of the test samples (L49, L49-sFv-bL, L49-Fab'-bL, and FITC-modified whole L49, keeping the total mAb concentration (test sample+L49-FITC) constant at 400 nM. Fluorescence intensity was determined by fluorescence activated cell sorter analysis.
Competition binding experiments were performed as described by Svensson et al.(Bioconjugate Chem., 3:176-181 (1992)). Immunoassays were performed by coating polystyrene 96 well plates with sp97 (0.1 mL, 2 μg/ml in PBS, overnight, 4° C.) After blocking with specimen diluent (Genetic Systems Corp.) for 1 h at 22° C., the blocking solution was replaced with fresh specimen diluent (0.1 ml) containing serial dilutions of the samples. After 1 h at 22° C. the plates were washed, followed by development with 0.1 mL of a nitrocefin (O'Callaghan et al., Antimicrobial Agents and Chemotherapy, 1:283-288 (1972)) solution (0.1 mM in PBS/1% dimethylformamide, 15 min, 22° C. Absorbance measurements were read in an plate reader using a 490 nm filter with 630 nm as the reference wavelength.
The binding characteristics of the sFv portion of the fusion protein were determined using a fluorescent activated cell sorting competition assay in which fusion protein and FITC-modified whole L49 competed for binding to cell-surface antigens on SK-MEL 28 melanoma cells. […]

[2] = target: T1, p97 antigen (Homo sapiens, UniProt P08582); assay: Surface plasmon resonance binding to immobilized p97 antigen; conditions: p97 immobilized on gold surface
T1 sequence (P08582 20-738): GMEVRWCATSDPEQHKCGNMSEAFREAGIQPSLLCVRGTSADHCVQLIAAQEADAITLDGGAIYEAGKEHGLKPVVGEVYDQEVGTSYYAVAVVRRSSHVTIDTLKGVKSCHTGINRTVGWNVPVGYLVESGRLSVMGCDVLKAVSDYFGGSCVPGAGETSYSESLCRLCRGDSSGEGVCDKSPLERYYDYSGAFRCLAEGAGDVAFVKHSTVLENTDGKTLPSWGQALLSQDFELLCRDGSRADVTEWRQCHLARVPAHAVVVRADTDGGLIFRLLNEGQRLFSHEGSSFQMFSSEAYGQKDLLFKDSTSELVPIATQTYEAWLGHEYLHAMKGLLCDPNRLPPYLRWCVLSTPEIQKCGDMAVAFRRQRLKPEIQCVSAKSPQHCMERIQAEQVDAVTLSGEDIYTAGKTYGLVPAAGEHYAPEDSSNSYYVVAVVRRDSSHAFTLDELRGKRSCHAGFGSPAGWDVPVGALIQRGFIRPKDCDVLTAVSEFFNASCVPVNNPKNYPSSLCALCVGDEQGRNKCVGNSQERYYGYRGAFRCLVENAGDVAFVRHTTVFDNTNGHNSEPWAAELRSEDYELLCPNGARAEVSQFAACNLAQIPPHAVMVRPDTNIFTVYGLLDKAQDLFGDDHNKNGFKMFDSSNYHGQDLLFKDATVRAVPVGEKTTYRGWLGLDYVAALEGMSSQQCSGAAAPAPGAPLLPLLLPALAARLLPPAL
Procedure: The binding characteristics of the sFv portion of the fusion protein were determined using a fluorescent activated cell sorting competition assay in which fusion protein and FITC-modified whole L49 competed for binding to cell-surface antigens on SK-MEL 28 melanoma cells. […] More detailed information about binding was obtained using surface plasmon resonance, which allowed the measurement of the on and off rates of L49-sFv-bL binding to the p97 antigen immobilized on a gold surface (Table 1).

[3] = tested on: 3677 melanoma xenografts; assay: In vivo therapy of established s.c. 3677 melanoma xenografts; design: species or system nude mice
Procedure: FIGS. 10A-10D. Therapeutic effects of L49-sFv-bL/CCM combinations in nude mice (six mice/group) with subcutaneous 3677 melanoma xenografts. Conjugates were injected, followed at various times by CCM (arrows on the X-axis). […] FIG. 10A. L49-sFv-bL (1 mg/kg/injection) 12 h before CCM. FIG. 10B. L49-sFv-bL (1 mg/kg/injection) 24 h before CCM. FIG. 10C. L49-sFv-bL (4 mg/kg/injection) 24 h before CCM. FIG. 10D. L49-sFv-bL (4 mg/kg/injection) 48 h before CCM.
In Vivo Therapy Experiments. 3677 tumor-bearing mice (subcutaneous implants, six animals/group, average tumor volume 130 mm^3) were injected with L49-sFv-bL (i.v., 7-8 days post tumor implant), followed 12-48 h later by CCM using doses of fusion protein and prodrug as indicated in the Results section. Treatment with L49-sFv-bL+CCM was repeated 1 week later. Animals were monitored 1-2 times/week for body weight, general health, and tumor growth. Tumor volume was estimated using the formula: longest length×perpendicular dimension^2 /2. Cures were defined as an established tumor that, after treatment, was not palpable for ≥10 tumor volume doubling delays (≥40 days in the 3677 tumor model). Maximum tolerated doses led to less than 20% weight loss, no treatment-related deaths, and were within 50% of the dose where such events took place.
Therapeutic Activity. In vivo therapy experiments were performed using the L49-sFv-bL/CCM combination in nude mice with established s.c. 3677 tumors. […] In the experiments reported here, conjugate treatment was initiated 7-8 days after tumor implant, at which time the tumors were approximately 130 mm^3 in volume. CCM was then administered 12, 24, or 48 h later, and the treatment protocol was repeated after 1 week. Maximum tolerated doses are defined as those that led to less than 20% weight loss, no treatment-related deaths, and were within 50% of the dose where such events took place. A tumor was considered as having been cured once it was not palpable for at least 10 tumor volume doubling times, based on the tumor growth of untreated animals (tumor volume doubling time was 4 days). If an animal was removed from the experiment because of tumor growth, the data from the entire group was no longer plotted, but the remaining animals were followed for tumor size and general health.

[4] = L49-sFv-bL 1 mg/kg/injection, CCM 75 mg/kg/injection 12 h later

B1: L49-sFv-bL: recombinant fusion protein: L49 anti-p97 single-chain Fv (VH-218 linker-VL) fused to r2-1 mutant E. cloacae β-lactamase, SEQ ID NO: 20 (protein)
chain: MKYLLPTAAAGLLLLAAQPAMAEVQLQESGPSLVKPSQTLSLTCSVTGDSITSGYWNWIRKFPGNKLEYMGYISDSGITYYNPSLKSRISITRDTSKNQYYLQLNFVTAEDTATYNCARRTLATYYAMDYWGQGTSVTVSSGSTSGSGKPGSGEGSTKGDFVMTQTPLSLPVSLGDQASISCRASQSLVHSNGNTYLHWYLQKPGQSPKLLIYRVSNRFSGVPDRFSGSGSGTDFTLKISRVEAEDLGVYFCSQSTHVPPTFGGGTKLEIKRTPVSEKQLAEVVANTITPLMKAQSVPGMAVAVIYQGKPHYYTFGKADIAANKPVTPQTLFELGSISKTFTGVLGGDAIARGEISLDDAVTRYWPQLTGKQWQGIRMLDLATYTAGGLPLQVPDEVTDNASLLRFYQNWQPQWKPGTTRLYANASIGLFGALAVKPSGMPYEQAMTTRVLKPLKLDHTWINVPKAEEAHYAWGYRDGKAVRVSPGMLDAQAYGVKTNVQDMANWVMANMAPENVADASLKQGIALAQSRYWRIGSMYQGLGWEMLNWPVEANTVVETSFGNVALAPLPVAEVNPPAPPVKASWVHKTGSTGGFGSYVAFIPEKQIGIVMLANTSYPNPARVEAAYHILEALQTSEFE
binding to the cell line in competition with FITC-modified whole L49 [1]: bound equally well
Kd [2]: 1 nM
koff [2]: 0.00042 s⁻¹
toxicity ([3]; CCM 24 h post conjugate, both cases (FIG. 10B, 10C)): no evidence of toxicity
cures in the group of six mice [3, 4]: four
tumor response of the remaining two animals [3, 4]: partial regressions
tumor cures ([3]; L49-sFv-bL 1 mg/kg/injection, CCM 125 and 175 mg/kg/injection 12 h later, repeated after 1 week): all of the animals
tumors cured ([3]; L49-sFv-bL 1 mg/kg/injection, increased CCM dose 24 h later (FIG. 10B)): the majority of tumors were cured
animals cured, of six ([3]; L49-sFv-bL 4 mg/kg/injection, CCM 275 mg/kg/injection 48 h later): three
tumors cured ([3]; L49-sFv-bL 4 mg/kg/injection, CCM 24 h later (FIG. 10C)): the majority of tumors were cured
tumor regressions ([3]; L49-sFv-bL 4 mg/kg/injection, CCM 48 h later (FIG. 10D)): all of the mice
toxicity ([3]; L49-sFv-bL then CCM 75, 125 or 175 mg/kg/injection 12 h later): no apparent toxicities

From patent US6132722A, “Recombinant antibody-enzyme fusion proteins” (Bristol-Myers Squibb Company, priority 1998, dated 2000)
